Experimental data: the nanobody polyreactivity screen of Harvey et al. (2022)

Assay: yeast display, Sf9 membrane polyspecificity reagent, FACS + sequencing; frameworks hold sequencing errors
Outline: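 Nanobodies from a synthetic yeast display library (Saccharomyces cerevisiae BJ5465), induced 36–48 hours with galactose, were stained 1 hour at 4 °C with 10% biotinylated, detergent-solubilized Sf9 membrane reagent, enriched on streptavidin microbeads, then FACS-sorted. Anti-HA (expression) and streptavidin (reagent binding) fluorescence set low and high (top ~1%) gates. Polyreactivity labels come from the gate of origin. Genes were colony-PCR amplified, MiSeq 2 × 250 sequenced and filtered by CDR length.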

Row | Sequence | polyreactivity (PSR sort gate)
1 | QVQLVESGGGLVQAGGSLRLSCAASGRNFRKYTMGWYRQAPGKERELVATISNSGVSTYYADSVKGRFTISRDYAKNTVYLQMNSLKPEDTAVYYCSKEWLYYNGFFRSYYWGQGTQVNVSS | high polyreactivity
2 | QVQLVESGGGLVQAGGSLRLSCAASGRNFRYNAMGWYRQAPGKERELVAAISSGDRTNYADSVKGRFTISRDNAKNTVYLQKKSLKPVDTAVYYCAAPTDSYYEFDYWGQGTQGTVSS | low polyreactivity
3 | QVQLVESGGGLVQAGGSLRLSCAASGRNFSRYAMGWYRQAPGKERELVAAISRRGGSTYYADSVKGRFTISRDNAKNTVYLQMNSLKPEDTAVYFCAKYPSAYVDSDVTYDMDYWGQGTQVTVSS | low polyreactivity
4 | QVQLVESGGGLVQAGGSLRLSCAASGRNFYFYAMGWYRQAPGKEREFVATISSTGGSTYYADSVKGRFTISRDNAKNTVYLQMNSLKPEDTAVYYCAVRGWYPGFRYDYWGQGTQVTVSS | low polyreactivity
5 | QVQLVESGGGLVQAGGSLRLSCAASGRNFYRYGMGWYRQAPGKERELVAAITYGGGSTYADSVKGRFTISRDNAKNTVYLQMNSLKPEDTAVYYCNARSRYRHYGFDYWGQGTQVTVSS | high polyreactivity
6 | QVQLVESGGGLVQAGGSLRLSCAASGRNLEYYAMGWYRQAPGQERELVATITSRGDTTHYADSVKGRFTISRDNAKNTVYLQMNSLKPEDTAVYYCAAAYVEYTPYRWYGDDYWGQGTQVTVSS | low polyreactivity
7 | QVQLVESGGGLVQAGGSLRLSCAASGRSFDRNAMGLYRQAPGKERELVADITSIGTRTYYADSVKGRFTISRDNAKNSVYLQMNSLKPEDTAVYYCAADYYYSYWYWFSSSYGYWGQGTQVTVSS | high polyreactivity
8 | QVQLVESGGGLVQAGGSLRLSCAASGRSFEVYVMGWYRQAPGKERELVAAISTGGSTYYADSVKGRFTISRDNAKNTVYLQMNSLKPEDTAVYYCAAKRTGNGYPRSGYSRYEYWGQGTQVTVSS | high polyreactivity
9 | QVQLVESGGGLVQAGGSLRLSCAASGRSFGNYVMGWYRQAPGKERELVAAISRSGGSTYYADSVKGRFTISRDNAKNIVYLQMNSLKPEDTAVYYCNTVTTYDVEYWGQGTQVTVSS | high polyreactivity
10 | QVQLVESGGGLVQAGGSLRLSCAASGRSFLGYPMGWYRQAARKERELVAAISSSGTSTYYADSVKGRFTISRDNAQNTVYLQMNSLKPEETSVYYCAKYAYSYYPPAYDYWGQGTKVTVSS | high polyreactivity
11 | QVQLVESGGGLVQAGGSLRLSCAASGRSFRDYGMGWYRQAPGKERELVAVITWGGGSTYYADSVKGRFTISRDNAKNTVYLQMNSLKPEDTAVYYCAKEYHYYYWGQGTQVTVSS | low polyreactivity
12 | QVQLVESGGGLVQAGGSLRLSCAASGRSFSIYAMGCYRQAPGKERELVASISRGISTNYADSVKGRFTISRDNAKNTVYLQMNSLKPEDTAVYYCASDLFSNYRYWGQGTQVTVSS | high polyreactivity
13 | QVQLVESGGGLVQAGGSLRLSCAASGRSFYFNAMGWYRQAPGKEWELVAVINSSGSTDYADSVKGRFTISRDNAKNTVYLQMNSLKPEDTAVYYCAAEVTPSGYGYWGQGTQVTVSS | low polyreactivity
14 | QVQLVESGGGLVQAGGSLRLSCAASGRSLEHNAMGWYSQAPGKERELVAAISGSGGTTYYADSVKGRFTISRDNAKNTVYLQMNSLKPEDTAVYYCNAKLYRSFDYWGQGTQVTVSS | low polyreactivity
15 | QVQLVESGGGLVQAGGSLRLSCAASGRTCKPYAMGWYRQAPGKEREVVAVITSNGSSTYYADSVKGRFTISRDNAKNTVYLQMNSLKPEDTAVYYCATKLTYTLTSGAYAYDYWGQGTQVTVSS | low polyreactivity
16 | QVQLVESGGGLVQAGGSLRLSCAASGRTCKYYAMGWYRQAPGKERELVATITWSGTSTNNADSVKGRFTISRDNAKNTVYLQMNSLKPEETAVYYCAARSKRRNYDYWGQGTQVTVSS | high polyreactivity
17 | QVQLVESGGGLVQAGGSLRLSCAASGRTFAAYAMGWYRQAPGKERELVAAITSGGGTYYADSVKGRFTISRDNAKNTVYLQMNSLKPEDTAVYYCAADYISVYGYEYYYWGQGTQVTVSS | high polyreactivity
18 | QVQLVESGGGLVQAGGSLRLSCAASGRTFAFNTMGWYRQAPGKERELVDAIRFSAGSTYYADSVKGRFTISRDNAKNTVYLQMNSLKPEDTAVYYCAASYGDRGGWGPGVDYWGQGTQVTVSS | low polyreactivity
19 | QVQLVESGGGLVQAGGSLRLSCAASGRTFAFYTLGWYRQAPGKERELVAAITRNGSTSYADSVKGRFTISRDNAKNTVFLQMNRLKPEDTAVYYCATVGYPYTLWHQMDYWGQGTQVTVSS | low polyreactivity
20 | QVQLVESGGGLVQAGGSLRLSCAASGRTFAFYTMGWYRQAPGKEREFVAASSWSGGSTHYADSVKGRFTISRDNEKNTVYLQMNSLTQEYTAVYYCAAGPFYRFTDGRDKTLDYWGQGNQVTVSS | high polyreactivity

Row | Sequence | polyreactivity (PSR sort gate)
21 | QVQLVESGGGLVQAGGSLRLSCAASGRTFAGNAMGWYRQAPGKERELVAAISQGGGSTYYADSVKGRFTFSRDNATNSVYLQMNRLNPDDTAVYYCAAEIPRRWASFATLWYDYWGQGTQVTVSS | low polyreactivity
22 | QVQLVESGGGLVQAGGSLRLSCAASGRTFAGNAMGWYRQAPGKERELVASISSSAGRTYYADSVKGRFTISRDNAKNTVYLQMNSLKPEDTAVDYCAARGGYVSTWTRFSKYNYWGQGTQVTVSS | high polyreactivity
23 | QVQLVESGGGLVQAGGSLRLSCAASGRTFAGNAMGWYRQAPGKERELVATITSRGTITYYADSVKGRFTISRDNAKNTVYLQMHSLKPEDTAVSYCNVRYYFPRYQQPYQLNEYYYWGQGTQVTVSS | low polyreactivity
24 | QVQLVESGGGLVQAGGSLRLSCAASGRTFAIYAMGWYRPAPGKEREFVAAISWSGGDTYYADSVKGRFTISRDNAKNTVYLQMNSLKPEDTAVYYCAARDYDYEGRDLQYELDYWGQGTQVTVSS | low polyreactivity
25 | QVQLVESGGGLVQAGGSLRLSCAASGRTFALYAMAWYRQAPGKERELVASISWRGGSTYYADSVKGRFTISRDNAKNTVYLQMNSLKPEDTAVYYCAADTWSYGPLNYRLEYWGQGTQVTVSS | low polyreactivity
26 | QVQLVESGGGLVQAGGSLRLSCAASGRTFALYAMGSYRQAPGKERELVAGITFRGGSTYYADSVKGRFTISRDNAKNTVYLQMNSLKPEDTAVYYCAAVPRVNLSRYVYFWYDYWGQGTQVTVSS | high polyreactivity
27 | QVQLVESGGGLVQAGGSLRLSCAASGRTFANYAMGWYRQAPGKERELVAAISVSTVSTYYADSVKGRFTISRDNAKNTVYLQMNSLKPEDTAVYYCAATSPYKYWYRYNYWGQGTQVTVSS | high polyreactivity
28 | QVQLVESGGGLVQAGGSLRLSCAASGRTFAPYAMAWYRQAPGKERELVAVISSSGGRTYYADSVKGRFTISRDNAKNTVYLQMNSLKPEDTAVYYCAADVYGYRFFKTGRYDYWGQGSQVTVSS | high polyreactivity
29 | QVQLVESGGGLVQAGGSLRLSCAASGRTFAQYVMGWYRQAPGTERELVAAISGIGGSTYYADSVKGRFTISRDNAKNTVYLQMNSLNPEDTAVYYCAVELYWYPGYDYWGQGTQVTVSS | low polyreactivity
30 | QVQLVESGGGLVQAGGSLRLSCAASGRTFARNAMGRYRQAPVKERELVAVISKGGSRTYYADSVKGRFTISRDNEKNTVYLQMNSLKPEDTAVYYCAARHYVTRDESYDYWGQVTQVTVSS | high polyreactivity
31 | QVQLVESGGGLVQAGGSLRLSCAASGRTFARNAMGWYRQAPGKERELVAAITSGGSTNYADSVKGRFTISRDNAKNTVYLQMNSLIPEDTAVYYCAADGAQYYYGRYYYWGQGTQVTVSS | high polyreactivity
32 | QVQLVESGGGLVQAGGSLRLSCAASGRTFARYAMGWYRQAPGKERELVAAISWSGGSTYYADSVKGRFTISRDNAKNTVYLQMNSLKPEDTAVYYCAAGYGARSAIFDVYGTNEGDYWGQGTQVTVSS | high polyreactivity
33 | QVQLVESGGGLVQAGGSLRLSCAASGRTFARYAMGWYRQAPWKERELVAAISRGGDSTYYADSVKGRFTISRDNAKNNVYLQMNSLKPEDTADYYCNAYVILALGYGGYDYWGQGTQVTVSS | high polyreactivity
34 | QVQLVESGGGLVQAGGSLRLSCAASGRTFASNAMGWYRQAPGKERELVAAISSAGGTNYADSVKGRFTISRDNAKNTVYLQMNSLKPEDTAVYYCAAASPYYSYHRYIYYYWGQGTQVTVSS | high polyreactivity
35 | QVQLVESGGGLVQAGGSLRLSCAASGRTFASNVMGWYRQAPGKERELVAAISRRGGSTYYADSVKGRFTISRDNAKNTVYLQMNSLKPEDTAVYYCNAVLYHLTYDYWGQGTQVTVSS | high polyreactivity
36 | QVQLVESGGGLVQAGGSLRLSCAASGRTFASYAMGWYRQAPGKERELVAVITRGGRTYYADSVKGRFTISRDNAKNTVYLQMNSLKPEDTAVYYCNAAYYSSSYLEDSWGQGTQVTVSS | high polyreactivity
37 | QVQLVESGGGLVQAGGSLRLSCAASGRTFASYMGWYRQAPWKERELVAAINWSGGTTYYADSVKGRFTISRDNAKNSVYLQMNSLKPEDTAVYYCNKLGYQSRGDYWGQGTQVTVSS | high polyreactivity
38 | QVQLVESGGGLVQAGGSLRLSCAASGRTFASYVMGWYRQAPGKERELVASITRTGSTYYADSVKGRFTISRDNAKNTVYLQMNSLKPEDTAVYYCNAATFYRRSSTRGFNYWGQGTQVTVSS | high polyreactivity
39 | QVQLVESGGGLVQAGGSLRLSCAASGRTFATYSMGRYIQAPGKERELVAAISRSGSTTYYADSVKGRFTISRDNAKNTVYLQMNSLKPEDTAVYYCNAKFRKADYDYWGQGTQVTVSS | high polyreactivity
40 | QVQLVESGGGLVQAGGSLRLSCAASGRTFAYNAMGWYRQAPGKERELVAAISSSGGSTYYADSVKGRFTISRDNAKNTVYLQMNSLKPEDTAGYYCATQGFSWAHGSDYWGQGTQVTVSS | low polyreactivity
